What was measured:
[1] = biological target: T1, human-siglec-15蛋白 (human, UniProt Q6ZMC9 20-263, biotinylated in the BLI assay and in phage panning (site not stated)); assay: BLI (Octet RED96), biotinylated siglec-15 on SA sensor, antibody at 5, 10, 20 μg/mL
T1 construct: Bought protein (Novoprotein for ELISA coating; biotinylated antigen from Obiosh for panning); The same entry is used for the plain and the biotinylated protein; also called hsiglec-15; siglec-15抗原
T1 sequence (looked up): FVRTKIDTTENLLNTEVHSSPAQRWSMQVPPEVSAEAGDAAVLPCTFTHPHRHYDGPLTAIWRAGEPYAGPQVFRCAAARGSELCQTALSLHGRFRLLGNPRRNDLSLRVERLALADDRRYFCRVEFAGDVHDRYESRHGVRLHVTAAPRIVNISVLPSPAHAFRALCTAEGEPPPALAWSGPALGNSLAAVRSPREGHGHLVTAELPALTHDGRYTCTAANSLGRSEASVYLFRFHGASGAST

[2] = biological target: T2, CD24蛋白 (UniProt P25063 27-59); assay: ELISA, antigen coated at 1 μg/mL
T2 chain (looked up): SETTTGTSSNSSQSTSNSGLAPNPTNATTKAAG

[3] = biological target: EphA2蛋白 (UniProt P29317 25-534, limits assumed); assay: ELISA, antigen coated at 1 μg/mL
[4] = biological target: T3, B7-H3蛋白 (UniProt Q5ZPR3-2 29-245, limits assumed); assay: ELISA, antigen coated at 1 μg/mL
T3 sequence (looked up): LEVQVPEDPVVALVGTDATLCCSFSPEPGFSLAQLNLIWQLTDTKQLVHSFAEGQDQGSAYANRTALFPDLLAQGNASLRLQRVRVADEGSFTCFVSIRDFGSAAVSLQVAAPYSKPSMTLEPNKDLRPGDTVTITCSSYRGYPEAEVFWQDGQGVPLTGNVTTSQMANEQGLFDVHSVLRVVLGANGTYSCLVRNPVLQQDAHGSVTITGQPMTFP

[5] = biological target: T4, Trop2蛋白 (UniProt P09758 27-274); assay: ELISA, antigen coated at 1 μg/mL
T4 sequence (looked up): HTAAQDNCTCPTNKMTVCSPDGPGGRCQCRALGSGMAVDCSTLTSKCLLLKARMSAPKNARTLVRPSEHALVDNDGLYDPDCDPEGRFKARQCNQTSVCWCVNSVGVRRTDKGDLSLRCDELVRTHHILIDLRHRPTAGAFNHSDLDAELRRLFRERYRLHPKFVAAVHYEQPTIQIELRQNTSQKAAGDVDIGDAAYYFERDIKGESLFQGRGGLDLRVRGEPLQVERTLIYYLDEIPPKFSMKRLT

EphA2蛋白, sequence (P29317 25-534 limits assumed): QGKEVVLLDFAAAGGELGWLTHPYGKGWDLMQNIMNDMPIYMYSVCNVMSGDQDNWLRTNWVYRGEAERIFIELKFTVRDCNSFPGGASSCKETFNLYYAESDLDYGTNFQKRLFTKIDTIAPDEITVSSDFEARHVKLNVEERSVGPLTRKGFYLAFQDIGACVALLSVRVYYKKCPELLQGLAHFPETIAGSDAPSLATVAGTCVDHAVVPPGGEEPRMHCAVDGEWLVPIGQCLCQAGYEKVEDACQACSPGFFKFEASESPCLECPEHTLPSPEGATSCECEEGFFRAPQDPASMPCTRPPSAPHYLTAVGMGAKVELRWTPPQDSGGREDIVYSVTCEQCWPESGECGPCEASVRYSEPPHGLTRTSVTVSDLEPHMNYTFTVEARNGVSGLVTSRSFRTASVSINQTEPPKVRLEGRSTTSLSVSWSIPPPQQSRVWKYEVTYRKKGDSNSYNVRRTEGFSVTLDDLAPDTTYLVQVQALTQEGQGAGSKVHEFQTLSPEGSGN

B1: S131-IgG1 (antibody, V domains shown)
VH: QVQLQESGPGLVNPSGTLSLSCTVSGDSIRNWYSWVRQPPGKGLEWIGEIHDNGGTNHNPSLKSRVTMSVGKSTSQLSLILNSVTAADTAVYHCAREGLPDGLDIWGPGTMVTVSS
VL: SSELTQDPAVSVALGQTVRITCQGDSLRSYYASWYQRKPGQAPILVMYGQNNRPSGIPDRFSGSNSRNTASLTITGAQAEDEADYYCGSRDTSDYRVLFGGGTKLTVLG
notes: also called 抗siglec15-IgG1重组抗体S131-IgG1; 全人源抗siglec-15-IgG1抗体
Kd [1]: ~1 nM | binding result [2]: no binding | binding result [3]: no binding | binding result [4]: no binding | binding result [5]: no binding

— patent publication CN117924498A (UNIV SOUTHWEST MEDICAL, dated 2024)
